Assay results as given in patent US12570698B2, “Stabilized peptides for covalent binding to target protein” (Dana-Farber Cancer Institute, Inc., priority 2015, dated 2026).
Positions count from the first letter of the chain named. Bridge positions count the residues as written; N and C are the ends. Square brackets hold non-standard residues; d marks the D form. Ends that are not written are not given here. S5 = C=CCCC[C@](C)(N)C(=O)O

Tests used:
[1] = target: T1, Bfl-1 (Homo sapiens, UniProt Q16548); experiment: Bfl-1:NOXA conjugation assay (disulfide bond formation); format: binding; settings: compared with BCL-XL and MCL-1; non-reducing SDS-PAGE
T1 sequence (Q16548 1-175): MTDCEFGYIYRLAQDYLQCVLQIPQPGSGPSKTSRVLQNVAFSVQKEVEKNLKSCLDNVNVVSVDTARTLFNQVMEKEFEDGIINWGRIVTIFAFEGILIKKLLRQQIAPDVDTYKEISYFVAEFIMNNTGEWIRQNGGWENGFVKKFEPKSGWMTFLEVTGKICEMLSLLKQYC
Protocol: Next, the impact of the C25 in NOXA was investigated. Bfl-1 and NOXA have cysteine residues within 3.5 Å of the Bfl-1 BH3 binding pocket according to modelling. […] To examine the impact of C25 in NOXA on target interaction, we examined the binding of WT NOXA SAHB and NOXA C25S SAHB to Bfl-1 and to a variety of Bfl-1 cysteine mutants. In vitro conjugation assays were performed in order to verify the formation of the disulfide bond. Global reduction of the protein and the NOXA peptides, followed by the introduction of an oxidant such as GSSG led to production of a disulfide bond, shown as a 3 kDa shift on non-reducing SDS-PAGE (FIG. 4A). […] (FIG. 4A).
Bfl-1:NOXA conjugation assay: The conjugation assay was developed to test for disulfide bond formation in a non-reducing environment. 3:1 FITC-stapled peptide:protein molar ratio was combined in the presence of DTT, then diluted and incubated with 1.2 molar excess GSSG. Samples were then run on non-reducing SDS-PAGE, scanned for fluorescence, then stained with Coomassie.

[2] = target: T2, BFL-1ΔC (Homo sapiens, UniProt Q16548, C19S/C4S/C55S); experiment: In vitro covalent conjugation assay; format: binding; settings: lacks C55; oxidizing conditions
T2 construct: cDNA encoding BFL-1ΔC (aa 1-153) was cloned into the pET19b expression vector; made in house; host or cells: Escherichia coli BL21(DE3) LOBSTR
T2 sequence (Q16548 1-153 C4S/C19S/C55S): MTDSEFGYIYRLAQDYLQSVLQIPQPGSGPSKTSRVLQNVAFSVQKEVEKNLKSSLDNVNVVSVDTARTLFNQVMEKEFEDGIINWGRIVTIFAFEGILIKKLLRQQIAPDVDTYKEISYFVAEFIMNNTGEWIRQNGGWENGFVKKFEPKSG
Protocol: (§1) In Vitro Covalent Conjugation Assay: BFL-1ΔC constructs (40 μM) were combined with NOXA SAHBA or NOXA SAHBA C25S (120 μM) and 10 mM DTT in 50 mM Tris pH 8.0, 100 mM NaCl (final volume, 5 μL), and then incubated in the dark for 1 h at room temperature (RT). After this incubation in a reducing environment, the mixture was diluted 5-fold into 50 mM Tris pH 8.0, 100 mM NaCl, 12 mM GSSG and incubated in the dark for an additional 30 min at RT. The samples were then boiled in 4× loading buffer lacking DTT and electrophoresed on 12% Bis-Tris gel. The gel was rinsed with water, subjected to FITC scan (Typhoon FLA 9500, GE Healthcare) and then Coomassie staining.
(§2) For warhead-bearing SAHBs, His-BFL-1ΔC C4S/C19S protein was pretreated with 10 mM DTT in 50 mM Tris pH 8.0, 100 mM NaCl for 30 min at RT (final volume, 9.5 μL), and then combined with a 10:1 molar ratio of NOXA SAHBA or BIM SAHBA peptides bearing warheads 1-8 (final volume, 10 μL) for an additional 2 h incubation at RT. Processing for gel electrophoresis and Coomassie staining was performed as above.

[3] = target: T3, BFL-1ΔC (Homo sapiens, UniProt Q16548); experiment: In vitro covalent conjugation assay; format: binding; settings: DTT (10 mM) reduction then GSSG oxidation (12 mM); Coomassie, FITC scan
T3 construct: cDNA encoding BFL-1ΔC (aa 1-153) was cloned into the pET19b expression vector; made in house; host or cells: Escherichia coli BL21(DE3) LOBSTR
T3 sequence (Q16548 1-153): T2 sequence (Q16548 1-153 C4S/C19S/C55S) with S4C, S19C, S55C
Protocol: as §1, §2

[4] = target: T4, BFL-1ΔC (Homo sapiens, UniProt Q16548, C19S/C4S); experiment: In vitro covalent conjugation assay; format: binding; settings: only C55 present; oxidizing conditions
T4 construct: cDNA encoding BFL-1ΔC (aa 1-153) was cloned into the pET19b expression vector; made in house; host or cells: Escherichia coli BL21(DE3) LOBSTR
T4 sequence (Q16548 1-153 C4S/C19S): T2 sequence (Q16548 1-153 C4S/C19S/C55S) with S55C
Protocol: as §1, §2

[5] = target: T1, Bfl-1; experiment: Liposomal release assay (Bfl-1 inhibition of BAX activation); format: biochemical
Protocol: The functional impact of the Bfl-1:NOXA disulfide bond formation was evaluated using competitive binding assays and liposomal release assays. […] Bfl-1 alone in the liposomal release assay inhibits activation of BAX and subsequent pore formation in the liposomes. […] (FIG. 5A and FIG. 5B).
Liposomal release assay: Large unilamellar vesicles (LUVs) with lipid composition resembling the mitochondrial outer membrane were generated, encapsulating the fluorescent dye ANTS (8-aminonaphthalene-1,3,6-trisulfonic acid, disodium salt) and the quencher DPX (p-xylene-bis-pyridinium bromide). For measurement of Bfl-1-induced inhibition of BAX, Bfl-1, BAX, tBid activator and liposomes were combined. To test effects of covalently bound Bfl-1:NOXA on BAX activation, Bfl-1 and NOXA SAHB were preincubated as described, then used at the designated concentrations. ANTS release and dequenching due to DPX dissociation (F) was measured over a period of 120 min with an M1000 Infinite plate reader (Tecan) with excitation and emission wavelengths of 355 nm and 520 nm, respectively. Plates were read following liposome lysis with 1% Triton X-100 to determine maximal release (F100). Percent ANTS/DPX release was calculated as [(F−F0)/(F100−F0)]×100.

[6] = target: T5, MCL-1ΔNΔC (Homo sapiens, UniProt Q07820); experiment: In vitro covalent conjugation assay; format: binding; settings: oxidizing conditions
T5 construct: MCL-1ΔNΔC (aa 170-327) and BCL-XLΔC (aa 1-212) constructs were cloned into pGEX-4T-1; GST (N, cleaved yes); made in house; host or cells: Escherichia coli BL21(DE3)
T5 sequence (Q07820 170-327, stated change not applied): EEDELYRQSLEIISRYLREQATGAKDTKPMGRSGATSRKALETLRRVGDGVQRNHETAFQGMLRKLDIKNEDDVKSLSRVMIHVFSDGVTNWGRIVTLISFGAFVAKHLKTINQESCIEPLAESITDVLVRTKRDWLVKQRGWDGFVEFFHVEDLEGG
Protocol: (§3) After this incubation in a reducing environment, the mixture was diluted 5-fold into 50 mM Tris pH 8.0, 100 mM NaCl, 12 mM GSSG and incubated in the dark for an additional 30 min at RT. […] The gel was rinsed with water, subjected to FITC scan (Typhoon FLA 9500, GE Healthcare) and then Coomassie staining.
(§4) Processing for gel electrophoresis and Coomassie staining was performed as above.

[7] = target: T6, BCL-XLΔC (Homo sapiens, UniProt Q07817); experiment: In vitro covalent conjugation assay; format: binding; settings: oxidizing conditions
T6 construct: MCL-1ΔNΔC (aa 170-327) and BCL-XLΔC (aa 1-212) constructs were cloned into pGEX-4T-1; GST (N, cleaved yes); made in house; host or cells: Escherichia coli BL21(DE3)
T6 sequence (Q07817 1-212, stated change not applied): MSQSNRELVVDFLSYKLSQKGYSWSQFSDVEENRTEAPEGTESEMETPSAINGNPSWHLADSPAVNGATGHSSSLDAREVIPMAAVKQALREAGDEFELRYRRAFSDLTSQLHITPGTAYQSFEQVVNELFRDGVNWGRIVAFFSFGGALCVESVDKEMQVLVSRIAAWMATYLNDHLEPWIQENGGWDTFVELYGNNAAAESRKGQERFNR
Protocol: as §3, §4

“NOXA SAHBA: stapled NOXA BH3 (aa 19-43) peptide, i, i+4 all-hydrocarbon staple substituting R31 and K35; SEQ ID NO:124 (AELEVECATQLR[S5]FGD[S5]LNFRQKLL; staple 13-17; not fully specified)” was tested, and the “covalent (disulfide) bond formation” value [1] was “only Bfl-1 forms a covalent bond”, the “disulfide adduct with BFL-1ΔC C4S/C19S/C55S” value [2] was “no adduct” and the “molecular weight shift of wild-type BFL-1ΔC (disulfide bond)” value [3] was “shift in the molecular weight”. The “disulfide adduct with BFL-1ΔC C4S/C19S” value [4] was “molecular weight shift (Coomassie stain) and FITC-labeling”, the “inhibition of anti-apoptotic effects of Bfl-1 on BAX” value ([5]; Bfl-1:NOXA disulfide bond formed prior to the assay) was “almost completely erases the effects of Bfl-1” and the “inhibition of anti-apoptotic effects of Bfl-1 on BAX” value ([5]; NOXA added concurrently with Bfl-1) was “somewhat inhibited”. The “molecular weight shift or FITC labeling” value [6] was “no molecular weight shift or FITC labeling” and the “molecular weight shift or FITC labeling” value [7] was “no molecular weight shift or FITC labeling”.
